{"source": "patent CN1903878A", "about": "(UNIV FUDAN, dated 2007)", "molecular_target": "T1, 重组冠状病毒S蛋白 (SARS冠状病毒棘突蛋白部分片段, 氨基酸位点257~573) (SARS冠状病毒, UniProt P59594 257-573)", "T1 construct": "range 257-573; also called 重组S蛋白; 重组抗原S蛋白", "assay": "SPR (Biacore 3000), recombinant S protein immobilised, Fab at 2.5-0.3125 μg/ml"}
{"binder": "抗冠状病毒人源性基因工程抗体Fab片段AS3-3 (Fab, V domains shown, also called 阳性克隆AS3-3; 抗SARS病毒人源性抗体IgG Fab片段) VH: EVKLVESGGGVVQPGRSLRLSCAASGFRFSTYAIHWVRQAPGKGLEWVARISHDGSQTHYADSVQGRFGVSRDNSNYTAYVQLNSLRPDDTAVYFCARAYSSTPDYGMDVWGQGTAVTVSS VL: EIVMTQSPLSPVTLGQPASISCKSSQSLVDTNGNTYLIWFHQRPGQSPRRLIYQVSKRDSGVPDRFSGSGTDFTLKISRVEAEDVGVYFCMQGTYRPPTLGQGTKVEIKR", "values": [{"measurement": "Ka", "result": "5.05e+07", "unit": "M⁻¹"}, {"measurement": "Kd", "result": 19.8, "unit": "nM"}, {"measurement": "koff", "result": 0.00306, "unit": "s⁻¹"}, {"measurement": "kon", "result": 154000, "unit": "M⁻¹ s⁻¹"}]}
